Reference: patent publication US20230111363A1 (LMMUNOMETABOLISM DEVELOPMENT, published 2023)

T1: human monocarboxylate transporter 1 (MCT1) (human, UniProt P53985 1-500)
T1 sequence: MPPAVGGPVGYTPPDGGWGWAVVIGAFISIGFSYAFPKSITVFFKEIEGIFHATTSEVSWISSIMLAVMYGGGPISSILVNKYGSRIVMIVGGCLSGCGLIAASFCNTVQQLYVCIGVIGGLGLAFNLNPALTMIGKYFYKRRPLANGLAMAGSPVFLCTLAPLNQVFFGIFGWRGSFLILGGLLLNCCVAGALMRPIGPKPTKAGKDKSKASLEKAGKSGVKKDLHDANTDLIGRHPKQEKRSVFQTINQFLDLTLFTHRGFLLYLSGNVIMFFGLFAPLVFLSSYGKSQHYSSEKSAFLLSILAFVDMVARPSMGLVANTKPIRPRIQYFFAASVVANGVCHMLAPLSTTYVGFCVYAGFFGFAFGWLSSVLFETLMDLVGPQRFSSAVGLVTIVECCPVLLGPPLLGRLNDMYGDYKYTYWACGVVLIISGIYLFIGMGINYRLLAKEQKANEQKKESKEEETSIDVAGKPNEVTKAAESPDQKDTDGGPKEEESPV


Columns and labels:
[1] = target: T1, human monocarboxylate transporter 1 …; test: cell-based or functional assay
[2] = target: T1, human monocarboxylate transporter 1 …; test: competition MSD binding assay, antibody titrated with HEK WT cells expressing MCT1, apparent KD, screening at 25 C
Protocol: The mix was incubated at 37° C. for 1-2 days. After incubation, the incubated samples were spun down for 5 min at 500×g to remove cells. A 96-well multi-array plate (Meso Scale Diagnostics, Cat. #L15XA-3) was coated at 4° C. overnight with 1 μg/mL of goat anti human FC in phosphate buffered saline (PBS). Following coating, plates were washed 3 times with 150 μL PBST (PBS with 0.05% Tween 20) and blocked with 150 μL/well of PBS 3% blocker A buffer (Cat #R93BA-1) at 25° C. for 1 hr. Plates were then washed 3 times with PBST. 50 μL of the preincubated antibody: cell dilution series was transferred to the wells and incubated at 25° C. with 700 rpm shaking for 1 hr. Plates were washed 3 times with PBST. Then 100 μL of 1 μg/mL anti-human kappa-biotin antibody (Cat. #2060-08) was added, and plates were incubated at 25° C. with 700 rpm shaking […]. Plates were washed 3 times with PBST, followed by addition of 100 μL of 1 μg/mL MSD Sulfo-tag streptavidin antibody (Meso Scale Diagnostics Cat. #R32 AD1), and plates were incubated at 25° C. with 700 rpm shaking for 1 hr. Plates were washed 3 times with PBST, 150 μL/well of 1× Read Buffer T was added to the wells and analyzed on a SECTOR® Imager 6000 (Meso Scale Diagnostics) 15 min after buffer addition. The apparent KD is determined by fitting a sigmoidal curve to the electrochemiluminescence (ECL) response vs. log (MCT1 receptor concentration) using assay development tool kit graphed with normalized ECL values.

[3] = target: T1, human monocarboxylate transporter 1 …; test: cell-based or functional assay; remark: listed apart in the source

| Binder | IC50 of inhibition of CD4 T cell proliferation [1] [nM] | IC50 of inhibition of CD8 T cell proliferation [1] [nM] | Kd [2] [nM] | IC50 of inhibition of MCT1 mediated transport (bromopyruvate assay, HEK293T cells) [3] [nM] |
| --- | --- | --- | --- | --- |
| anti-human MCT1 antibody Ab14 (antibody, human IgG1, kappa, V domains shown, IgG1EN backbone) VH: QVQLVQSGAEVKKPGASVKVSCTVSGRSLTNYHLQWVRQAPGQGLEWMGFIRSSGNTEYNSEFKSRVTMTRDTSTSTVYMELSSLRSEDTAVYYCARNRWYHGTYYSPGYYVMDPWGQGTLVTVSS VL: EIVLTQSPGTLSLSPGERATLSCKGSQNIENYLAWYQQKPGQAPRLLIYNRHNLQTGIPDRFSGSGSGTDFTLTISRLEPEDFAVYYCYQYSDGYTFGGGTKVEIKR | 5 | 6 | 1.31 | 40 |
| anti-human MCT1 antibody Ab15 (antibody, human IgG1, kappa, V domains shown, IgG1EN backbone) VH: QVQLVQSGAEVKKPGASVKVSCTVSGRSLTNYHLQWVRQAPGQGLEWMGFIRSSGNTEYNSEFKSRVTMTRDTSTSTVYMELSSLRSEDTAVYYCARNLWYHGTYYSPGYYVMDAWGQGTLVTVSS VL: EIVLTQSPGTLSLSPGERATLSCKGSQNIENYLAWYQQKPGQAPRLLIYNRHNLQTGIPDRFSGSGSGTDFTLTISRLEPEDFAVYYCYQYSDGYTFGGGTKVEIKR | 5 | 8 | 1.96 | 48 |
| anti-human MCT1 antibody Ab13 (antibody, human IgG1, kappa, V domains shown, IgG1EN backbone) VH: QVQLVQSGAEVKKPGASVKVSCTVSGRSLTNYHLQWVRQAPGQGLEWMGFIRSSGNTEYNSEFKSRVTMTRDTSTSTVYMELSSLRSEDTAVYYCARNRWRHGTYYSPGYYVMDAWGQGTLVTVSS VL: EIVLTQSPGTLSLSPGERATLSCKGSQNIENYLAWYQQKPGQAPRLLIYNRHNLQTGIPDRFSGSGSGTDFTLTISRLEPEDFAVYYCYQYSDGYTFGGGTKVEIKR | 3 | 4 | 2.82 | 42 |
| anti-human MCT1 antibody Ab18 (antibody, human IgG1, kappa, V domains shown, IgG1EN backbone) VH: QVQLVQSGAEVKKPGASVKVSCTVSGRSLTNYHLGWVRQAPGQGLEWMGFIRSSGNTEYNSEFKSRVTMTRDTSTSTVYMELSSLRSEDTAVYYCARNRWYHGTYYSPGYYVMDAWGQGTLVTVSS VL: EIVLTQSPGTLSLSPGERATLSCKGSQNIENYLAWYQQKPGQAPRLLIYNRHNLQTGIPDRFSGSGSGTDFTLTISRLEPEDFAVYYCYQYSDGYTFGGGTKVEIKR | 6 | 2 | 5.14 | 41 |
| anti-human MCT1 antibody Ab11 (antibody, human IgG1, kappa, V domains shown, IgG1EN backbone) VH: QVQLVQSGAEVKKPGASVKVSCTVSGRSLTNYHLQWVRQAPGQGLEWMGFIRSSGNTEYNSEFKSRVTMTRDTSTSTVYMELSSLRSEDTAVYYCARNRWHHGTYYSPGYYVMDAWGQGTLVTVSS VL: EIVLTQSPGTLSLSPGERATLSCKGSQNIENYLAWYQQKPGQAPRLLIYNRHNLQTGIPDRFSGSGSGTDFTLTISRLEPEDFAVYYCYQYSDGYTFGGGTKVEIKR | 4 | 5 | 1.91 | 35 |
| anti-human MCT1 antibody Ab17 (antibody, human IgG1, kappa, V domains shown, IgG1EN backbone) VH: QVQLVQSGAEVKKPGASVKVSCTVSGRSLTNIHLQWVRQAPGQGLEWMGFIRSSGNTEYNSEFKSRVTMTRDTSTSTVYMELSSLRSEDTAVYYCARNRWYHGTYYSPGYYVMDAWGQGTLVTVSS VL: EIVLTQSPGTLSLSPGERATLSCKGSQNIENYLAWYQQKPGQAPRLLIYNRHNLQTGIPDRFSGSGSGTDFTLTISRLEPEDFAVYYCYQYSDGYTFGGGTKVEIKR | 5 | 2 | 1.04 | 38 |
| anti-human MCT1 antibody Ab9 (antibody, human IgG1, kappa, V domains shown, IgG1EN backbone) VH: QVQLVQSGAEVKKPGASVKVSCTVSGRSLTNYHIQWVRQAPGQGLEWMGFIRSSGNTEYNSEFKSRVTMTRDTSTSTVYMELSSLRSEDTAVYYCARNRWYHGTYYSPGYYVMDAWGQGTLVTVSS VL: EIVLTQSPGTLSLSPGERATLSCKGSQNIENYLAWYQQKPGQAPRLLIYNRHNLQTGIPDRFSGSGSGTDFTLTISRLEPEDFAVYYCYQYSDGYTFGGGTKVEIKR | 4 | 5 | 4.56 | 35 |
| anti-human MCT1 antibody Ab12 (antibody, human IgG1, kappa, V domains shown, IgG1EN backbone) VH: QVQLVQSGAEVKKPGASVKVSCTVSGRSLTNYHLVWVRQAPGQGLEWMGFIRSSGNTEYNSEFKSRVTMTRDTSTSTVYMELSSLRSEDTAVYYCARNRWYHGTYYSPGYYVMDAWGQGTLVTVSS VL: EIVLTQSPGTLSLSPGERATLSCKGSQNIENYLAWYQQKPGQAPRLLIYNRHNLQTGIPDRFSGSGSGTDFTLTISRLEPEDFAVYYCYQYSDGYTFGGGTKVEIKR | 4 | 5 | 1.64 | 39 |

Stronger by Kd [2], values ahead:

| IC50 of inhibition of CD4 T cell proliferation [1] [nM] | IC50 of inhibition of CD8 T cell proliferation [1] [nM] | Kd [2] [nM] | IC50 of inhibition of MCT1 mediated transport (bromopyruvate assay, HEK293T cells) [3] [nM] | Binder |
| --- | --- | --- | --- | --- |
| 2 | 4 | 0.47 | 28 | anti-human MCT1 antibody Ab7 (antibody, human IgG1, kappa, V domains shown, IgG1EN backbone) VH: QVQLVQSGAEVKKPGASVKVSCTVSGRSRTNYHLQWVRQAPGQGLEWMGFIRSSGNTEYNSEFKSRVTMTRDTSTSTVYMELSSLRSEDTAVYYCARNRWYHGTYYSPGYYVMDAWGQGTLVTVSS VL: EIVLTQSPGTLSLSPGERATLSCKGSQNIENYLAWYQQKPGQAPRLLIYNRHNLQTGIPDRFSGSGSGTDFTLTISRLEPEDFAVYYCYQYSDGYTFGGGTKVEIKR |
| 3 | 3 | 0.55 | 21 | anti-human MCT1 antibody Ab8 (antibody, human IgG1, kappa, V domains shown, IgG1EN backbone) VH: QVQLVQSGAEVKKPGASVKVSCTVSGRSLTNYHLQWVRQAPGQGLEWMGFIRSSGNTIYNSEFKSRVTMTRDTSTSTVYMELSSLRSEDTAVYYCARNRWYHGTYYSPGYYVMDAWGQGTLVTVSS VL: EIVLTQSPGTLSLSPGERATLSCKGSQNIENYLAWYQQKPGQAPRLLIYNRHNLQTGIPDRFSGSGSGTDFTLTISRLEPEDFAVYYCYQYSDGYTFGGGTKVEIKR |
| 3 | 7 | 0.85 | 39 | anti-human MCT1 antibody Ab10 (antibody, human IgG1, kappa, V domains shown, IgG1EN backbone) VH: QVQLVQSGAEVKKPGASVKVSCTVSGRSLTGYHLQWVRQAPGQGLEWMGFIRSSGNTEYNSEFKSRVTMTRDTSTSTVYMELSSLRSEDTAVYYCARNRWYHGTYYSPGYYVMDAWGQGTLVTVSS VL: EIVLTQSPGTLSLSPGERATLSCKGSQNIENYLAWYQQKPGQAPRLLIYNRHNLQTGIPDRFSGSGSGTDFTLTISRLEPEDFAVYYCYQYSDGYTFGGGTKVEIKR |
| 5 | 3 | 0.46 | 35 | anti-human MCT1 antibody Ab19 (antibody, human IgG1, kappa, V domains shown, IgG1EN backbone) VH: QVQLVQSGAEVKKPGASVKVSCTVSGRSLTNYHLQWVRQAPGQGLEWMGFIRRSGNTEYNSEFKSRVTMTRDTSTSTVYMELSSLRSEDTAVYYCARNRWYHGTYYSPGYYVMDAWGQGTLVTVSS VL: EIVLTQSPGTLSLSPGERATLSCKGSQNIENYLAWYQQKPGQAPRLLIYNRHNLQTGIPDRFSGSGSGTDFTLTISRLEPEDFAVYYCYQYSDGYTFGGGTKVEIKR |
| 5 | 3 | 0.71 | 31 | anti-human MCT1 antibody Ab16 (antibody, human IgG1, kappa, V domains shown, IgG1EN backbone) VH: QVQLVQSGAEVKKPGASVKVSCTRSGRSLTNYHLQWVRQAPGQGLEWMGFIRSSGNTEYNSEFKSRVTMTRDTSTSTVYMELSSLRSEDTAVYYCARNRWYHGTYYSPGYYVMDAWGQGTLVTVSS VL: EIVLTQSPGTLSLSPGERATLSCKGSQNIENYLAWYQQKPGQAPRLLIYNRHNLQTGIPDRFSGSGSGTDFTLTISRLEPEDFAVYYCYQYSDGYTFGGGTKVEIKR |
